Where a chain is given by its changes, count along the chain named.
Tests used:
[1] = target: T1, mIL-2/MMP1cs/4x linker/mIL-2Rα + 6His (UniProt P04351)
T1 sequence: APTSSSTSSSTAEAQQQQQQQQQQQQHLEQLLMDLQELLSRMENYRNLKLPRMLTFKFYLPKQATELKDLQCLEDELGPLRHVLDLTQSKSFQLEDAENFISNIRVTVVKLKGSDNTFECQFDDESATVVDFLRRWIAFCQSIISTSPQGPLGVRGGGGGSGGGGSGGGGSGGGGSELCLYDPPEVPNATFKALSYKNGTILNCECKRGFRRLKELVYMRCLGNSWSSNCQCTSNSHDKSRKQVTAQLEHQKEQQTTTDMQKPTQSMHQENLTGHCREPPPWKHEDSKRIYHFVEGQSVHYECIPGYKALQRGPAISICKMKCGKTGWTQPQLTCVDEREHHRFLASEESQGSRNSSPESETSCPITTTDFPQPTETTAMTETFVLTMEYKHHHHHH

[2] = target: T2, mIL-2/MMP2cs/4x linker/mIL-2Rα + 6His (UniProt P04351)
T2 sequence: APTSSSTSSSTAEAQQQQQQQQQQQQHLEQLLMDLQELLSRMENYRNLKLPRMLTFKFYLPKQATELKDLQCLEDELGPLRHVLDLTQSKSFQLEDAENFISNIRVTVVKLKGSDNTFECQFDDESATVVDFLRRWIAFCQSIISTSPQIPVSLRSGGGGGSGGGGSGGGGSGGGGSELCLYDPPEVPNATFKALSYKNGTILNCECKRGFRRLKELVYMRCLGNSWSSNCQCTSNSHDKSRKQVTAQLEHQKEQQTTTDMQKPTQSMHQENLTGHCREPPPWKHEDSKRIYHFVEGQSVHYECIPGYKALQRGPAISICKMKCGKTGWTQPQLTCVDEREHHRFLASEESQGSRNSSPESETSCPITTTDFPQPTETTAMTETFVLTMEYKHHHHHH

[3] = target: T3, mIL-2/MMP4-1cs/4x linker/mIL-2Rα + 6His (UniProt P04351)
T3 sequence: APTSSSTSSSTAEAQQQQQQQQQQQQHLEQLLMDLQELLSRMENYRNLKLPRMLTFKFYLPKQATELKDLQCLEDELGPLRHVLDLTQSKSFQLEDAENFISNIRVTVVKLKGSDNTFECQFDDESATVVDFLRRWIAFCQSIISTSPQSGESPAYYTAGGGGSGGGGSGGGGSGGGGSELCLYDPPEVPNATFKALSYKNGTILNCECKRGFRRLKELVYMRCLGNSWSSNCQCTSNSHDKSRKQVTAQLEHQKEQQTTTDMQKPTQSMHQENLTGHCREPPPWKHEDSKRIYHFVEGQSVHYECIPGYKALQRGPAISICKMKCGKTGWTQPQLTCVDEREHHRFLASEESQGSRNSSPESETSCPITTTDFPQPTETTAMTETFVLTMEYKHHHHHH

[4] = target: T4, mIL-2/MMP3-2cs/4x linker/mIL-2Rα + 6His (UniProt P04351)
T4 sequence: T2 sequence with I150V, V152L, R155Y

[5] = target: mIL-2/PSAcs/4x linker/mIL-2Rα (UniProt P04351)
[6] = target: mouse IL-2/PSAcs/Mip-1α fusion protein (UniProt P04351)
[7] = target: mIL-2/PSAcs/2x linker/mIL-2Rα (UniProt P04351)
[8] = target: hIL-2/PSAcs/2x linker/scFv + 6His (UniProt P60568)
hIL-2/PSAcs/2x linker/scFv + 6His, sequence (P60568 whole entry, looked up): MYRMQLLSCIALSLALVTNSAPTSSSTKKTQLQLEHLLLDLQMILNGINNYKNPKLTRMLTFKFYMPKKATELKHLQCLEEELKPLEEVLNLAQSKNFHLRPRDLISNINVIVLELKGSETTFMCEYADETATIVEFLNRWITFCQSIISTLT

matrix metalloproteinase 2 (MMP2), APMA-activated (R & D Systems), sequence (P08253 110-660): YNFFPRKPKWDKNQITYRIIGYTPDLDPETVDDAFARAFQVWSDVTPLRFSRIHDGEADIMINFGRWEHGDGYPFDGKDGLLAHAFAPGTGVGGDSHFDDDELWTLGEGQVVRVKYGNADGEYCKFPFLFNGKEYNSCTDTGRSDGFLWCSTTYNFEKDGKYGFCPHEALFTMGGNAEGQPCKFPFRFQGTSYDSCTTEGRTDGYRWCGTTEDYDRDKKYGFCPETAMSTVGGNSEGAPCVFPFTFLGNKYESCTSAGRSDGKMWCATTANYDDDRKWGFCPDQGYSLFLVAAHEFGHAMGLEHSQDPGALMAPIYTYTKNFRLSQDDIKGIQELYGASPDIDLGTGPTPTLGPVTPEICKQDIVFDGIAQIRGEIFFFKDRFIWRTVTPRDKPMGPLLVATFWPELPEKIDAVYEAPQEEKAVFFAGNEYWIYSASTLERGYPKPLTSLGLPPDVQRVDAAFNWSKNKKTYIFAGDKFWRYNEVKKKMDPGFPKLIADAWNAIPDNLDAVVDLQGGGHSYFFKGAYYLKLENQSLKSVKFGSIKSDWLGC

Substance: matrix metalloproteinase 2 (MMP2), APMA-activated (R & D Systems)
- cleavage by activated MMP2, immunoblot [1]: These cleavage sites were also capable of being cleaved using activated MMP2 and MMP9
- cleavage by activated MMP2, immunoblot [2]: These cleavage sites were also capable of being cleaved using activated MMP2 and MMP9
- cleavage by MMP2, anti-IL-2 immunoblot [3]: the fusion protein can be cleaved by MMP2 or MMP9
- cleavage by activated MMP2, immunoblot [4]: These cleavage sites were also capable of being cleaved using activated MMP2 and MMP9

Substance: matrix metalloproteinase 9 (MMP9), APMA-activated (R & D Systems)
- cleavage by activated MMP9, immunoblot [1]: These cleavage sites were also capable of being cleaved using activated MMP2 and MMP9
- cleavage by activated MMP9, immunoblot [2]: These cleavage sites were also capable of being cleaved using activated MMP2 and MMP9
- cleavage by MMP9, anti-IL-2 immunoblot [3]: the fusion protein can be cleaved by MMP2 or MMP9
- cleavage by activated MMP9, immunoblot [4]: These cleavage sites were also capable of being cleaved using activated MMP2 and MMP9

Substance: prostate specific antigen (PSA), purified (Cortex Biochem)
- cleavage by PSA, anti-IL-2 immunoblot [5]: Immunoblot analyses revealed that the fusion proteins could be cleaved by PSA
- cleavage by PSA, anti-IL-2 immunoblot [6]: the IL-2/Mip1α fusion protein could be cleaved by PSA
- cleavage by PSA, anti-IL-2 immunoblot [7]: Immunoblot analyses revealed that the fusion proteins could be cleaved by PSA
- cleavage by PSA, anti-human IL-2 immunoblot [8]: the human IL-2/PSAcs/human scFv-2 fusion protein can be cleaved by PSA
